Target: T1, KSHV G protein-coupled receptor (kGPCR), stably expressed in HUVEC (Kaposi's sarcoma-associated herpesvirus …, UniProt Q98146 1-342)
T1 construct: GPCR homologue of Kaposi's sarcoma-associated herpesvirus (kGPCR); Probably HA-tagged like the other constructs, but no tag and no primary antibody is named for the proximity ligation assay; also called HUVEC/kGPCR
T1 sequence: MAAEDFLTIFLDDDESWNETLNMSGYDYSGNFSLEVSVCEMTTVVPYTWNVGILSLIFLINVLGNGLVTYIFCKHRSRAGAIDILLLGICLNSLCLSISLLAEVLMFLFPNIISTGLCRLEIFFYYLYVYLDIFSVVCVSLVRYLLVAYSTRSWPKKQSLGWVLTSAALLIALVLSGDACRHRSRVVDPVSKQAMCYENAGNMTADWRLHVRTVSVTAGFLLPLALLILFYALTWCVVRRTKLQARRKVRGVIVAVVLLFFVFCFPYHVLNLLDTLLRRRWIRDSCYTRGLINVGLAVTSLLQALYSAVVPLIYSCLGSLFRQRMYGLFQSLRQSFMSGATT
Experiment: proximity ligation; Duolink in situ kit on fixed HUVEC-Vector or HUVEC-kGPCR stable cells; spots counted in more than 100 cells of each group
Details: partners not purified

B1: sarco/endoplasmic reticulum calcium ATPase 2 (SERCA2), endogenous in HUVEC (enzyme, human (endogenous in HUVEC), UniProt P16615 1-1042, looked up)
chain: MENAHTKTVEEVLGHFGVNESTGLSLEQVKKLKERWGSNELPAEEGKTLLELVIEQFEDLLVRILLLAACISFVLAWFEEGEETITAFVEPFVILLILVANAIVGVWQERNAENAIEALKEYEPEMGKVYRQDRKSVQRIKAKDIVPGDIVEIAVGDKVPADIRLTSIKSTTLRVDQSILTGESVSVIKHTDPVPDPRAVNQDKKNMLFSGTNIAAGKAMGVVVATGVNTEIGKIRDEMVATEQERTPLQQKLDEFGEQLSKVISLICIAVWIINIGHFNDPVHGGSWIRGAIYYFKIAVALAVAAIPEGLPAVITTCLALGTRRMAKKNAIVRSLPSVETLGCTSVICSDKTGTLTTNQMSVCRMFILDRVEGDTCSLNEFTITGSTYAPIGEVHKDDKPVNCHQYDGLVELATICALCNDSALDYNEAKGVYEKVGEATETALTCLVEKMNVFDTELKGLSKIERANACNSVIKQLMKKEFTLEFSRDRKSMSVYCTPNKPSRTSMSKMFVKGAPEGVIDRCTHIRVGSTKVPMTSGVKQKIMSVIREWGSGSDTLRCLALATHDNPLRREEMHLEDSANFIKYETNLTFVGCVGMLDPPRIEVASSVKLCRQAGIRVIMITGDNKGTAVAICRRIGIFGQDEDVTSKAFTGREFDELNPSAQRDACLNARCFARVEPSHKSKIVEFLQSFDEITAMTGDGVNDAPALKKAEIGIAMGSGTAVAKTASEMVLADDNFSTIVAAVEEGRAIYNNMKQFIRYLISSNVGEVVCIFLTAALGFPEALIPVQLLWVNLVTDGLPATALGFNPPDLDIMNKPPRNPKEPLISGWLFFRYLAIGCYVGAATVGAAAWWFIAADGGPRVSFYQLSHFLQCKEDNPDFEGVDCAIFESPYPMTMALSVLVTIEMCNALNSLSENQSLLRMPPWENIWLVGSICLSMSLHFLILYVEPLPLIFQITPLNVTQWLMVLKISLPVILMDETLKFVARNYLEPGKECVQPATKSCSFSACTDGISWPFVLLIMPLVIWVYSTDTNFSDMFWS
notes: SERCA2 of human umbilical vein endothelial cells; source: endogenous, HUVEC, in fixed cells
fold of proximity ligation fluorescent spots over control HUVEC cells: > 10 fold

Reference: publication PMC4374719, “Herpesviral G Protein-Coupled Receptors Activate NFAT to Induce Tumor Formation via Inhibiting the SERCA Calcium ATPase” (PLoS Pathogens, 2015)
